Test system: CsrA-H6 (Escherichia coli (stated identical to S. Typhimurium CsrA))
Assay: EMSA

## hilE leader RNA (+153 to +280)
  Kd: 37 nM
